The target of this assay is 抗原(Biacore 8K表面等离子共振实验，未指明). The experiment in a line: SPR, Biacore 8K; antigen and format not given. On the technique in general: In SPR one partner is held on a chip, and binding of the other changes the refractive index at the surface.

The record followed here is CN113817050A.

The term Kd denotes the free concentration of one partner at which half of the binding sites on the other are occupied at equilibrium, for simple one-to-one binding. A low value points to a tighter complex. In general, koff refers to the rate constant with which the complex falls apart. Low values mean a long-lived complex, high ones a short-lived complex. Usually kon stands for the rate constant with which the complex forms. Read a low kon as slow association.

B1: 抗SARS-CoV-2的单克隆抗体1H8 (antibody, V domains shown)
VH: EVQLVESGGGLVQPGGSLRLSCAASEITVSSNYMNWVRQAPGKGLEWVSVIYSGGTTYYADSVKGRFTISRDNSENTLYLQMNSLRAEDTAVYYCARDLMEVGGMDVWGQGTTVTVSS
VL: DIVMTQSPSSLSASVGDRVTITCRASQGVSNYLAWYQQKPGKVPKLLIYAASTLQSGVPSRFSGSRSGTDFTLTISSLQPEDVATYYCQNYNSAPFAFGPGTKVEIK
Take B1: the dissociation constant (Kd) was found to be 18.7 nM, the koff was determined as 0.00138 s⁻¹ and the association rate constant (kon) amounted to 73600 M⁻¹ s⁻¹.
